Data: publication PMC3998888

Target: ALG-1(anti) (C. elegans (endogenous in whole animals))
Assay: co-IP; ALG-1 immunoprecipitated with a custom ALG-1-specific polyclonal antibody (Anaspec) from whole protein lysate of wild type or alg-1(anti) animals; precipitate probed by Western blot with anti-ALG-1, anti-DCR-1 and anti-AIN-1; signals quantified as ratios to ALG-1 and normalised to wild type

Row | Substance | fold decrease in co-precipitated AIN-1 against wild type ALG-1 [fold] | fold decrease in co-precipitated AIN-1 against wild type ALG-1 (average of biological replicates) [fold] | fold increase in co-precipitated DCR-1 against wild type ALG-1 [fold]
1 | AIN-1 (GW182) (natural protein) | 3 | 2 | 
2 | DCR-1 (Dicer) (from UniProt P34529 1-1910) (enzyme) |  |  | 4
